Experiments:
[1] = biological target: Fmut8Δ11 protein (recombinant ARFP, truncated HCV-1a F protein lacking the first 11 N-terminal amino acids) (HCV-1a) (UniProt P0C045); assay: ELISA, serum 1/1600, day 29
[2] = biological target: Fmut8Δ11 protein (recombinant ARFP, truncated HCV-1a F protein lacking the first 11 N-terminal amino acids) (HCV-1a) (UniProt P0C045); assay: ELISA, serum 1/1600, day 52
[3] = biological target: Fmut8Δ11 protein (recombinant ARFP, truncated HCV-1a F protein lacking the first 11 N-terminal amino acids) (HCV-1a) (UniProt P0C045); assay: ELISA, serum 1/800, day 29
[4] = biological target: Fmut8Δ11 protein (recombinant ARFP, truncated HCV-1a F protein lacking the first 11 N-terminal amino acids) (HCV-1a) (UniProt P0C045); assay: ELISA, serum 1/400, day 29
[5] = biological target: Fmut8Δ11 protein (recombinant ARFP, truncated HCV-1a F protein lacking the first 11 N-terminal amino acids) (HCV-1a) (UniProt P0C045); assay: ELISA, serum 1/100, day 29
[6] = biological target: Fmut8Δ11 protein (recombinant ARFP, truncated HCV-1a F protein lacking the first 11 N-terminal amino acids) (HCV-1a) (UniProt P0C045); assay: ELISA, serum 1/200, day 29
[7] = biological target: Fmut8Δ11 protein (recombinant ARFP, truncated HCV-1a F protein lacking the first 11 N-terminal amino acids) (HCV-1a) (UniProt P0C045); assay: ELISA, serum 1/400, day 52
[8] = biological target: Fmut8Δ11 protein (recombinant ARFP, truncated HCV-1a F protein lacking the first 11 N-terminal amino acids) (HCV-1a) (UniProt P0C045); assay: ELISA, serum 1/50, day 29
[9] = biological target: Fmut8Δ11 protein (recombinant ARFP, truncated HCV-1a F protein lacking the first 11 N-terminal amino acids) (HCV-1a) (UniProt P0C045); assay: ELISA, serum 1/800, day 52
[10] = biological target: Fmut8Δ11 protein (recombinant ARFP, truncated HCV-1a F protein lacking the first 11 N-terminal amino acids) (HCV-1a) (UniProt P0C045); assay: ELISA, serum 1/200, day 52
[11] = biological target: Fmut8Δ11 protein (recombinant ARFP, truncated HCV-1a F protein lacking the first 11 N-terminal amino acids) (HCV-1a) (UniProt P0C045); assay: ELISA, serum 1/1600, day 14
[12] = biological target: Fmut8Δ11 protein (recombinant ARFP, truncated HCV-1a F protein lacking the first 11 N-terminal amino acids) (HCV-1a) (UniProt P0C045); assay: ELISA, serum 1/100, day 14
[13] = biological target: Fmut8Δ11 protein (recombinant ARFP, truncated HCV-1a F protein lacking the first 11 N-terminal amino acids) (HCV-1a) (UniProt P0C045); assay: ELISA, serum 1/200, day 14
[14] = biological target: Fmut8Δ11 protein (recombinant ARFP, truncated HCV-1a F protein lacking the first 11 N-terminal amino acids) (HCV-1a) (UniProt P0C045); assay: ELISA, serum 1/800, day 14
[15] = biological target: Fmut8Δ11 protein (recombinant ARFP, truncated HCV-1a F protein lacking the first 11 N-terminal amino acids) (HCV-1a) (UniProt P0C045); assay: ELISA, serum 1/50, day 14
[16] = biological target: Fmut8Δ11 protein (recombinant ARFP, truncated HCV-1a F protein lacking the first 11 N-terminal amino acids) (HCV-1a) (UniProt P0C045); assay: ELISA, serum 1/100, day 52
[17] = biological target: Fmut8Δ11 protein (recombinant ARFP, truncated HCV-1a F protein lacking the first 11 N-terminal amino acids) (HCV-1a) (UniProt P0C045); assay: ELISA, serum 1/400, day 14
[18] = biological target: Fmut8Δ11 protein (recombinant ARFP, truncated HCV-1a F protein lacking the first 11 N-terminal amino acids) (HCV-1a) (UniProt P0C045); assay: ELISA, serum 1/50, day 52

Row | Substance | OD410 [1] | OD410 [2] | OD410 [3] | OD410 [4] | OD410 [5] | OD410 [6] | OD410 [7] | OD410 [8] | OD410 [9] | OD410 [10] | OD410 [11] | OD410 [12] | OD410 [13] | OD410 [14] | OD410 [15] | OD410 [16] | OD410 [17] | OD410 [18]
1 | serum of mouse 11, protocol 2, mock immunization (PBS) (antibody) | 0.123 | 0.117 | 0.127 | 0.128 | 0.19 | 0.153 | 0.149 | 0.307 | 0.118 | 0.133 | 0.113 | 0.154 | 0.135 | 0.114 | 0.108 | 0.173 | 0.116 | 0.35
2 | serum of mouse 12, protocol 2, mock immunization (PBS) (antibody) | 0.117 | 0.12 | 0.114 | 0.114 | 0.148 | 0.127 | 0.146 | 0.246 | 0.125 | 0.17 | 0.15 | 0.302 | 0.215 | 0.16 | 0.442 | 0.208 | 0.17 | 0.516
3 | serum of mouse 13, protocol 2, mock immunization (PBS) (antibody) | 0.13 | 0.113 | 0.126 | 0.121 | 0.161 | 0.126 | 0.133 | 0.338 | 0.123 | 0.172 | 0.142 | 0.177 | 0.151 | 0.169 | 0.288 | 0.238 | 0.143 | 0.474
4 | serum of mouse 14, protocol 2, mock immunization (PBS) (antibody) | 0.124 | 0.145 | 0.123 | 0.126 | 0.156 | 0.143 | 0.163 | 0.246 | 0.159 | 0.156 | 0.143 | 0.171 | 0.178 | 0.15 | 0.212 | 0.224 | 0.151 | 0.288
5 | serum of mouse 15, protocol 2, mock immunization (PBS) (antibody) | 0.122 | 0.136 | 0.13 | 0.113 | 0.16 | 0.123 | 0.177 | 0.253 | 0.134 | 0.151 | 0.116 | 0.162 | 0.146 | 0.118 | 0.229 | 0.215 | 0.144 | 0.376
6 | serum of mouse 16, protocol 2, mock immunization (PBS) (antibody) | 0.116 | 0.123 | 0.129 | 0.151 | 0.325 | 0.196 | 0.134 | 0.327 | 0.107 | 0.149 | 0.123 | 0.174 | 0.13 | 0.13 | 0.249 | 0.194 | 0.121 | 0.231
7 | serum of mouse 17, protocol 2, mock immunization (PBS) (antibody) | 0.112 | 0.125 | 0.119 | 0.138 | 0.269 | 0.191 | 0.142 | 0.754 | 0.125 | 0.185 | 0.159 | 0.487 | 0.321 | 0.184 | 0.67 | 0.286 | 0.248 | 0.5
8 | serum of mouse 18, protocol 2, mock immunization (PBS) (antibody) | 0.119 | 0.134 | 0.126 | 0.134 | 0.217 | 0.166 | 0.12 | 0.356 | 0.114 | 0.135 | 0.122 | 0.162 | 0.136 | 0.126 | 0.228 | 0.161 | 0.127 | 0.279
9 | serum of mouse 19, protocol 2, mock immunization (PBS) (antibody) | 0.119 | 0.126 | 0.139 | 0.54 | 0.27 | 0.184 | 0.135 | 0.444 | 0.12 | 0.143 | 0.129 | 0.18 | 0.144 | 0.13 | 0.23 | 0.175 | 0.142 | 0.313
10 | serum of mouse 20, protocol 2, mock immunization (PBS) (antibody) | 0.141 | 0.127 | 0.13 | 0.133 | 0.181 | 0.154 | 0.141 | 0.51 | 0.127 | 0.146 | 0.118 | 0.168 | 0.138 | 0.136 | 0.245 | 0.182 | 0.121 | 0.247
11 | serum of mouse 26, protocol 2, mock immunization (PBS) (antibody) | 0.137 | 0.118 | 0.144 | 0.144 | 0.178 | 0.154 | 0.12 | 0.416 | 0.114 | 0.123 | 0.126 | 0.193 | 0.146 | 0.133 | 0.281 | 0.146 | 0.133 | 0.203
12 | serum of mouse 27, protocol 2, mock immunization (PBS) (antibody) | 0.129 | 0.116 | 0.124 | 0.13 | 0.175 | 0.14 | 0.12 | 0.324 | 0.115 | 0.136 | 0.112 | 0.146 | 0.113 | 0.113 | 0.216 | 0.155 | 0.115 | 0.201
13 | serum of mouse 30, protocol 2, mock immunization (PBS) (antibody) | 0.129 | 0.119 | 0.126 | 0.132 | 0.224 | 0.157 | 0.119 | 0.381 | 0.113 | 0.128 | – | – | – | – | – | 0.148 | – | 0.226
